# Measurements published in patent US5801037A, “Expression of signal-peptide-free staphylokinases” (medac Gesellschaft fur klinische spezialpraparate mbH, priority 1991, dated 1998).
# B1: SAK fragment form N14ΔSAK42D (other)
# chain: MASYFEPTGPYLMVNVTGVDGKRNELLSPRYVEFPIKPGTTLTKEKIEYYVEWALDATAYKEFRVVELDPSAKIEVTYYDKNKKKEETKSFPITEKGFVVPDLSEHIKNPGFNLITKVVIEKK
# B2: SAK fragment form N10ΔSAK42D (other)
# chain: MKGDDASYFEPTGPYLMVNVTGVDGKRNELLSPRYVEFPIKPGTTLTKEKIEYYVEWALDATAYKEFRVVELDPSAKIEVTYYDKNKKKEETKSFPITEKGFVVPDLSEHIKNPGFNLITKVVIEKK
# B3: SAK42D: signal-peptide-free mature native staphylokinase from S. aureus phage 42D, 136 amino acids, Seq. Id. No. 1 (protein)
# chain: MSSSFDKGKYKKGDDASYFEPTGPYLMVNVTGVDGKRNELLSPRYVEFPIKPGTTLTKEKIEYYVEWALDATAYKEFRVVELDPSAKIEVTYYDKNKKKEETKSFPITEKGFVVPDLSEHIKNPGFNLITKVVIEKK
# How the values were obtained:
# [1] = target: plasminogen
# [2] = target: human plasminogen isolated from human plasma (human, UniProt P00747); test: analytical affinity chromatography on immobilized human plasminogen, 16° C., 0.1M tris-HCl pH 7.3
# [3] = tested on: plasminogen; test: Determination of the specific activity of the SAK polypeptides (plasmin release from plasminogen, Chromozym-PL); type: biochemical; details: plasminogen in excess, activation 10 minutes at 25° C., 405 nm
# Procedure: The specific activity of a SAK form is defined as that quantity of plasmin (μmol) which is released per minute by 1 μmol of this SAK polypeptide from plasminogen (used in excess).
# The protein content of the pertinent SAK polypeptide-containing parent solutions is established by means of the Bio-Rad Protein Assay (Bio-Rad, Munich) using bovine serum albumin as standard protein.
# The determination of the plasmin release by the SAK polypeptides is carried out in two steps:
# Firstly, dilution series (1 ng to 500 ng) of the SAK polypeptides are produced in 100 mM tris (pH 8.0). A reaction mixture, consisting of 30 μl plasminogen solution 20 mg plasminogen (Fluka), dissolved in 1 ml H2 O, 150 μl 100 mM tris buffer (pH 5.0) and 10 μl activator solution (dilution series SAK polypeptides) is then prepared. This mixture is incubated for 10 minutes at 25° C. […]
# Reference samples, calibration samples and the actual measurement samples (each 250 μl) are pipetted into a microtitre plate with 96 cavities (flat bottom) and the adsorption at 405 nm is measured in a multi-channel photometer.
# The quantity of plasmin which is released per minute by the SAK polypeptides contained in the starting solutions (dilution samples) can be calculated from the absorption values of the measured samples, taking into account the absorption values of the plasmin calibration series and of the reference samples. […]
Molecule,specific activity in µmol plasmin/(µmol SAK × min) (µmol plasmin/(µmol SAK × min)) [1],also measured
SAK fragment form N10ΔSAK42D,22.7,–
SAK fragment form N14ΔSAK42D,8.1,–
artificial allelic SAK form SAKM26C,21.1,–
artificial allelic SAK form SAKM26L,36.6,–
mature native staphylokinase SAK42D,16.2,–
B1,–,Kd [2]: 4.4 µM
B2,–,Kd [2]: 2.21 µM
B3,–,specific activity [3]: 16.2 μmol plasmin/(μmol SAK × min)
